The values that follow come from a protein production outcome set (Wang et al. 2014).

The nature of this data set: label from the status in PepcDB records.
In the case of “MKDTLKIGLLGLGTVGTGVLTLLKEHQEKISQVTGMNVVIEKAFVRNLETKQAQAEEYGLSLTTSIDDILEDKEIQIVVELMGTIEPAKTYIMKALEKGKHIVTANKDLLAQHGSELVALAQKHHCDLYYEASVAGGIPILRTIANSLAADNIQQVLGIVNGTTNYMLTQMVSADKSYEEALAEAQALGFAEADPTNDVDGIDAAYKMVILSQFAFGMNVSLPQVDIRGIRGLSLDDVAMAKQLGYEIKLIGSAEQNENSISVEVAPMLVNQKHPIASVRNEYNAVFIKSAGVGESMYYGPGAGAKPTATSVVSDLITIAKNIRLATTGHMFNSYQHKTQLTSSENVFGQYYFSLDVPDTPGQFLQLTQLMTKAEVSFDQLVQQKSDGQRARIVAITHQISKAQMQQVVIAIQNTEAFQLLNVMKVIGDE”, the protein production entry is listed as “failed”. On to “MKEARKRMVKRAVQEIKDGMNVNLGIGMPTLVANEIPDGVHVMLQSENGLLGIGPYPLEGTEDADLINAGKETITEVTGASYFDSAESFAMIRGGHIDLAILGGMEVSEQGDLANWMIPGKMVKGMGGAMDLVNGAKRIVVIMEHVNKHGESKVKKTCSLPLTGQKVVHRLITDLAVFDFVNGRMTLTELQDGVTIEEVYEKTEADFAVSQSVLNS”, for which the protein production result is on record as “not failed”.

In the case of “MKEEAVRVIEEVLKQGRTAMVEYEAKQVLKAYGLPVPEEKLAKTLDEALEYAKEIGYPVVLKLMSPQILHKSDAKVVMLNIKNEEELKKKWEEIHENAKKYRPDAEILGVLVAPMLKPGREVIIGVTEDPQFGHAIMFGLGGIFVEILKDVTFRLVPITEKDARKMIQEIKAYPILAGARGEEPADIDAIVDMLLKVSKLVDDLKDYIKEMDLNPVFVYNKGEGAVIVDSRIILKPKD”, the protein production entry is “not failed”.

On to “MKEGTGMVVRSSEITPERISNMRGGKGEVEMAHLLSKEAMHNKARLFARMKLPPGSSVGLHKHEGEFEIYYILLGEGVFHDNGKDVPIKAGDVCFTDSGESHSIENTGNTDLEFLAVIILL”, for which the protein production result is on record as “not failed”. For “MKEIVERVKTKTKIPVYERSVENVLSAVLASDDIWRIVDLSEEPLPLVVAILESLNELGYVTFEDGVKLTEKGEELVAEYGIGKRYDFTCPHCQGKTVDLQAFADLLEQFREIVKDRPEPLHEFDQAYVTPETTVARVILMHTRGDLENKDIFVLGDDDLTSIALMLSGLPKRIAVLDIDERLTKFIEKAANEIGYEDIEIFTFDLRKPLPDYALHKFDTFITDPPETLEAIRAFVGRGIATLKGPRCAGYFGITRRESSLDKWREIQKLLLNEFNVVITDIIRNFNEYVNWGYAEETRAWKLIPIKKLPEYNWYKSYMFRIETLEGSRGYEDEIPEEDIYNDEESST”, the protein production result is reported as “not failed”. In the case of “MKEKEYLFSLDMKVRDYECDLQGVVNNSNYQRYMEHTRHEFWESLGDNFGQMHEKGLDAFVYKVTITFKQSLRSGDRFRSCLTCHKKGPKLIFMQDIIREDGVMAARGEVEVVAVQDGVLTRGEYFDVLMKDILSKTTKLEHHHHHH”, the protein production entry was “not failed”. With “MKELNIALLGLGTVGSGVVKIIEENRQQIKDTINKDIVIKHILVRDKSKKRPLNISQYHLTEDINDILNDNSIDIVVEVMGGIEPTVDWLRTALKNKKHVITANKDLLAIHLKLLEDLAEENGVALKFEASVAGGIPIVNAINNGLNANNISKFMGIFNGTSNFILSKMTHEQTTFKDALEEAQRLGFAEADPTDDVEGVDAARKVVITSYLSFNQVIKLNDVKSVGISDITLADINAANSLNYKIKLIGKGTYENGYVNASVEPTLIHKNHQLAAVENEYNAIYVIGDAVGDTMFYGKGAGSLATGSAVVSDLLNVALFFESNLHTLPPHFELKTEETKEMMDGAEPVVIQEKSNYYIVISNNNKSLEKVEYDIKKKLPFHKSLQLVERDQDTYAIIVTGIETSPEKVLNQSGFNIKKVYPVEGV”, the protein production result is recorded as “failed”. For the sequence “MKELPRGDLLSPKTEEKFKLTNKAKIFFRPYMDPPEMPSSEYPLWLCTGRVLEHWHSGTMTMRVPELYRAVPEALCYMHPEDAKKLGVKQNEAVWVESRRGKVKARLEHHHHHH”, the protein production result is recorded as “not failed”. As for “MKELSLFLQNRSVRRVGVFILIAFVLYLLRSQMNIILLTFIFSYLITRLENFILRRISIYRQIIVLLLYVLIAAVIIFVFVKYIPVLADQINQLVKFGNTFLTTDSNNDFINYIVSLANQFDIMKYTEQGVSMILTYLTNVGTVLMNVFIALMLSLFFSLGKEHLVSFTNQFSTSKIGFIYEEVKFFGSKFVATFGKVIEAQFIIALVNAILTTIALWILGFPQLMTLSIMVFLLGLIPVAGVIISLVPLTIIGYSIGGVEYIFYILVVVIIIHALESYVLNPKLMSAKTNLPVFYTFIILIFGEHFFGIWGLIVGIPVVMFFLDVLGVTNQEEIEQPKDTISHT”, the protein production entry is given as “failed”. On to “MKENLQDRLERENLKIASFGKRVLAFLIDDMVISLIVFIIFYDRLIQAKDLFETTQIVGNFYLGFILLHFSYQAIFTYLYGASLGKILCKIIILDENLLDKPNLIQSCIRSAVRQVSAMAFMLGFAWALSNDLRKAWEDYLARTIVVDVA”, for which the protein production result is given as “failed”. As to “MKEQILEKLKTVKYPGFEKDIVSFNFVKDIKIQDDGVFIDIEIVSANPEVANEIRKNTIEALSSLALKNIELNIITPKIPEEKSNSRSGKNIAPQVKNFIMVSSGKGGVGKSTTTVNLAISMAKMGKRVGILDADIYGPNIPRMLGETKTQPEVVGQRLKPILTHGVYMMSMGVLIEEGQGLMWRGAMIMKAIEQLLADVIWPELDVLFLDMPPGTGDAQITSAQSIPIAAGVCVSTPQTVSLDDSKRALDMFNKLHIPIAGVIENMSGFLCPDNGKEYDIFGKGTAEDMAKAYKSEVLAQIPIEMIVREGGDEGKPVSFYHPESVSSKRYLMAAEKIWSFIEKINNEGGADNSAIQPVMNGKSACSHLEHHHHHH”, the protein production entry is listed as “not failed”. On to “MKETHNSQDRLAYLKQQLPADITRSVIDTLKEDLGGTLDPAADITASLIPADRISTATIITREAGVFCGQLWADEVFKQLGGQVSIEWHVQDGDTLTPNQTLCTLTGPARILLTGERNAMNFIQTLSGCATATARYVQELKGTQCRLLDTRKTIPGLRSALKYAVACGGGYNHRIGVFDAYLIKENHIIACGGIRQAISTAKQLNPGKPVEVETETLAELEEAISAGADIIMLDNFSLEMMREAVKINAGRAALENSGNITLDNLKECAETGVDYISVGALTKHLKALDLSMRFKS”, for which the protein production entry is on record as “not failed”. “MKETYYFAYGSNMNLDQMAYRCPAASVVEPVHLEGYRLTFCGRGKGSGVATILPEEGSRVEGVLWKITPECEKSLDFYEGYPHLYGKEPVLVQGKDGMKREVMAYTMNAPYKDQPAIPSDLYFMGIVEGCHQNGISSRSVTDALKRVREEVGRQKPSQKKTEVSR”: the protein production entry is listed as “failed”. Regarding “MKFDNKAPIYIQIMDKIKIDIINGTLKPGDKLPSVREMAVKFKVNPNTLQRVYQELERENITYTQRGTGSFVREDSDMIINLKKEMASEVIENFIENIKEFGFGNKDILKIVEDKLNEEEK”, the protein production entry is recorded as “not failed”. For the sequence “MKFDVIIIGSGLAGLTAGIRLAEAGKSCAIISNGQSALHFSSGSLDLLTHLPDGTPVSHPKQALSTLAQQAPEHPYSRIGEANVTQLIEQAQTLLSTTRNLDYKGNGDENHYRITPVGRSRMSWMSPQRVPTYSVNQPFPWKKIAVVGIEGFLDFQPQFASSTLNEQGIEAIPYHIHLPLLDRLRDNPSEFRAINIARYLDKPENTQALAEELIKHIDNSVEAIVLPACIGLDEEAPVNLLQECVGKPICLLPTLPPSLLGIRLHQALKLRFQQAGGLIMPGDRAEEADLVGNKVVGIHTRNHTDIPIRSEHVVLATGSFFNNGLIAEFDRIYEPLMELDLLESLPRNEWTQVNVFAKQPYMRFGVNTDSQLRPLKYGEALDNVYAVGALLGGFDPLNEGCGAGVSMISALYAAQQILQSDKSQHTTSAAVEAVL”, the protein production entry is reported as “not failed”.

Regarding “MKFEAIAVEKIPLIHEGDNLPSIICEKIGLQDRDIMIIASTIVAKAEGEIFRLEDITPGEEALEIAARTGKDPRFIQAVLSKSREVFVETPFMLVTTLAGHTCVNAGIDESNIENGFLLYPPENPDASALKIGKELEKLSGKKLSIIITDTNGRAFKIGQTGVAIGIYNIKPVKRWIGEKDLFGKVLEITEQAIADELAGAANLLMGEGAGGIPVVIIRGLDYYCEGDTSIKESYRPENMDVIKQGLRCLRNKK”, the protein production result is “failed”.

With “MKFEGIYTPAITPLSADGSIDTQAFAEVLEFLVESKVHGIVIGGSTGEYYAHTAEERLALAAHASEVIAGRLPLVVGTGAIRTEDSLAYAEAARAIGADAILVGSPPYALPTSREIAEHVLAVDRAAGLPIMLYNYPARMGVEMDEAFFAAVAGCRNIVAIKESSGSTAQLHRLACRHPRIALSCGWDDQALEFFAWGARSWVCAGSNFIPGEHLALYQACVVENDFAKGRRIMAAMMPLMDFLESGHFVQSIKHGCELAGLRAGGVRAPLKALDEAGKAALAEIVARLKGEVAR”, the protein production entry is “failed”. With “MKFGRKCRIIVFISLVLFTFPVFSQDKNFTDKPSSSDKRVASEEFRRGVQAYYRGTFNEAILLFEKALSYLPDESLILDWLGKAYYSSGVEGAALTQWELAEAAGYGGMLLKNKIEILKESRSLTPYSSDNIKYVENSSFSSKNGTVELFRQPLSIAAVSDGSFWMTAYGSNELLHFNVNGIILDRTKGPIQGFDRPFDVIALSDGNLLVSEFAADRISLLDKNGSFIKSFGTRGRGNGEFIGPQFLAEDEYGNIYVCDFGNARIVVFSSAGEPLFTFGKKSGLFGGFTAPAGIAVVDGLVYIADAIKGAVYTFDTAGNFVQSLLPEGTLKQIESLREWNGNLVASAGNKAYLIDIAFSTVSELTSLGNVPTKITAAVPDVNGSLLLIDHKNQTVEITSRINELAGGLFVLIKKVYSDKFPEVLVEVSVQNRDGKQIVGLTQDNFIITEGNRPVADYSLTGSSYLNKTCDIAVIVERSPNSLKEKALIEAALKEIAEAMQGRGKISLISASSIPALEGKFSPADLITLPNRIKTPASSDWKLDLALRLAVGELINAEQKRAVLFLNFSDPNSDNFKQYNLNDLASYMKNNNIRFYPISLKKGAPASEMSYLAKKTGGKTSYIYAERGLKPLIDDIIEKPLGMYQLKYTSTMSTDFGRSFLPVEVEVQLLERSGRDEIGYFAPLE” the entry was “failed”; with “MKFLELNKKRHATKHFTDKLVDPKDVRTAIEIATLAPSAHNSQPWKFVVVREKNAELAKLAYGSNFEQVSSAPVTIALFTDTDLAKRARKIARVGGANNFSEEQLQYFMKNLPAEFARYSEQQVSDYLALNAGLVAMNLVLALTDQGIGSNIILGFDKSKVNEVLEIEDRFRPELLITVGYTDEKLEPSYRLPVDEIIEKR”, “not failed”; with “MKFLVENLNGSSFELEVDYRDTLLVVKQKIERSQHIPVSKQTLIVDGIVILREDLTVEQCQIVPTSDIQLEVSS”, “not failed”. In the case of “MKFRGNFVCQPRAGPAESRPTRPFTPRPSATGSLFMSNQHFVSPDLIRQGFSRAMSDMYREEVPLYGALMELVAEVNAQVLERQPALARHLQSSGELQRLDLERHGAIRVGSAAELATLARLFAVMGMQPVGYYDLTPAGVPVHSTAFRAVHEAALQVSPFRVFTSLLRLELIDNPELRSFAEQVLARRQIFTPQVLELIQQAEAAGGLDAEDAERFIRQALETFRWHHHATVTAAQYASLSAQHRLIADVVAFKGPHINHLTPRTLDIDEVQRLMPARGITPKAVIEGPPRRECPILLRQTSFKALEESVAFTDQAQSQGSHSARFGEIEQRGAALTPKGRELYDRLLNAARDALGDFPNEANAQRYNQLMQEHFREFPDSHPAMREQGLAYFRYFVSETGLAARNQPQRPTTLAALLAAGHLSAEPLVYEDFLPVSAAGIFQSNLGDDSQSHYAGQSNRQAFEAALGRPTLDELQLYAQTQQRSLEHCAATLGLPALLEHHHHHH”, the protein production entry is “failed”.
